Results from patent publication US20100056764A1 (Novo Nordisk, published 2010).
Values joined by “and” are separate entries in the source; they are usually repeats but may differ in a detail not shown here. Equal entries are not always repeated. Where two headings read alike, the source gives them in different places.

Assays:
[1] = target: T1, human NKG2D (hNKG2D) on the cell surface (human, UniProt P26718 1-216); test: flow cytometry blocking assay on NKG2D/DAP10-expressing BaF/3 cells: pre-incubation with the antibody, then 1 µg MICA-mFc; y axis % remaining MICA-Fc binding
T1 construct: Carried by BaF/3 cells co-transfected with full-length NKG2D and DAP10, or naturally by human NK, CD8+ T and gamma-delta T cells (PBMC, whole blood); also called cell-surface NKG2D; NKG2D- and DAP10-expressing BaF/3 cells
T1 chain: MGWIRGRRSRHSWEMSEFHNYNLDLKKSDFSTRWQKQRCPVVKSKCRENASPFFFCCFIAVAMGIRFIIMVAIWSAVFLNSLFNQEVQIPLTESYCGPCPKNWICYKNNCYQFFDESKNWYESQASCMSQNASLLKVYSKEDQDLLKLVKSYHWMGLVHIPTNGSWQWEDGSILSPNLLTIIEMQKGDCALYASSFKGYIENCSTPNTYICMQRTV
Description: (§1) Flow cytometry assays—MICA blockade. […] The cells were then analysed on a B&D FACSArray flow cytometer. The degree of reduction of MICA binding by preincubation was analysed as MFI (mean fluorescence intensity) of binding with pre-incubation in % of binding of MICA without preincubation.

[2] = target: T1, human NKG2D (hNKG2D) on the cell surface; test: flow cytometry, NKG2D/DAP10 BaF/3 cells pre-incubated with antibody, then 1 µg MICA-mFc (competitor)
Description: as §1

[3] = target: T1, human NKG2D (hNKG2D) on the cell surface; test: flow cytometry, human CD8 T cells in PBMC, anti-human IgG4 detection
Description: (§2) Briefly, incubation with antibody was performed at 4° C. for 30 min followed by washing, then directly labelled secondary anti-hIgG4 antibody was added and incubated for 30 min at 4° C. along with antibodies specific for the various cell populations of interest, CD8, CD4, NK and γδ-T cells, then the cells were washed twice in PBS with 2% FCS and the red blood cell lysed. The cells were then analyzed by flow cytometry and binding to the different cell populations assessed.

[4] = target: T2, cynomolgous monkey NKG2D on NK, CD8+ T and gamma-delta T cells (cynomolgous monkey (Macaca fascicularis), UniProt P61252 1-216); test: flow cytometry, cynomolgous CD8 T cells in PBMC, anti-human IgG4 detection
T2 construct: whole, on cells; Target on cynomolgous PBMC and whole blood cells; also called cynomologous NKG2D; cyno NKG2D
T2 sequence (looked up): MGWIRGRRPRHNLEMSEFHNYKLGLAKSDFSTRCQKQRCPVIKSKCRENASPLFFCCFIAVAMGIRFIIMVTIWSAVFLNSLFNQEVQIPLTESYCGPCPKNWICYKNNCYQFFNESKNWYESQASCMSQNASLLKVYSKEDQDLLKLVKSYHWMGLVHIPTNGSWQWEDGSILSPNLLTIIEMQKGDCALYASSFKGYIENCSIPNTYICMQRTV
Description: as §2

[5] = target: T2, cynomolgous monkey NKG2D on NK, CD8+ T …; test: flow cytometry, cynomolgous NK cells in PBMC, anti-human IgG4 detection
Description: as §2

[6] = target: T1, human NKG2D (hNKG2D) on the cell surface; test: flow cytometry, dose-response on NKG2D- and DAP10-expressing BaF/3 cells
[7] = target: T2, cynomolgous monkey NKG2D on NK, CD8+ T …; test: flow cytometry, NK cells; reference is 21F2 on human cells
Description: as §2

[8] = target: T1, human NKG2D (hNKG2D) on the cell surface; test: flow cytometry, NKG2D/DAP10 BaF/3 cells pre-incubated with antibody, then 1 µg MICA-mFc (competitor)
Description: as §1

[9] = target: T3, recombinant NKG2D-Fc protein (R&D Systems), immobilized on a Biacore CM5 chip (human, UniProt P26718 78-216); test: SPR (Biacore), NKG2D-Fc immobilized on CM5 chip at 400 RU, antibody in solution, Langmuir fit
T3 construct: also called NKG2D-hFc; hFc-NKG2D; not shown: Fc portion of the purchased fusion protein
T3 sequence: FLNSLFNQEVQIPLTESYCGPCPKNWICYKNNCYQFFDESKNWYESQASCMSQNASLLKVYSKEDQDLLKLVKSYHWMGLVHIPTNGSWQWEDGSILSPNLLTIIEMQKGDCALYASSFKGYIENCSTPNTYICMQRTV
Description: Surface plasmon resonance measurements were performed on a Biacore 1000 upgrade apparatus (Biacore GE Healthcare; Biacore Upgrade CA0396) at 25° C. In all Biacore experiments HBS-EP buffer (Biacore GE Healthcare; BR-1001-88) served as running buffer and sensorgrams were analyzed with Biaevaluation 4.1 software.
Protein immobilisation. […] Recombinant NKG2D-Fc proteins were immobilized covalently to carboxyl groups in the dextran layer on a Sensor Chip CM5 (Biacore GE Healthcare; BR-1000-14). The sensor chip surface was activated with EDC/NHS (N-ethyl-N′-(3-dimethylaminopropyl)carbodiimidehydrochloride and N-hydroxysuccinimide (Biacore GE Healthcare; BR-1000-50)). […] Deactivation of the remaining activated groups was performed using 100 mM ethanolamine pH 8 (Biacore GE Healthcare; BR-1000-50).
[…] The resulting sensorgrams were analysed by global fitting using the Langmuir model. The dissociation constant (KD) was calculated as KD=kd/ka.

[10] = target: T1, human NKG2D (hNKG2D) on the cell surface; test: cell-based or functional assay
[11] = target: T2, cynomolgous monkey NKG2D on NK, CD8+ T …; test: flow cytometry, CD8 T cells; reference is 21F2 on human cells
Description: as §2

[12] = target: T1, human NKG2D (hNKG2D) on the cell surface; test: flow cytometry, human gamma-delta T cells (Gd) in PBMC, anti-human IgG4 detection
Description: as §2

[13] = target: T2, cynomolgous monkey NKG2D on NK, CD8+ T …; test: flow cytometry, gamma-delta T cells (Gd); reference is 21F2 on human cells
Description: as §2

[14] = target: T1, human NKG2D (hNKG2D) on the cell surface; test: flow cytometry, human NK cells in PBMC, anti-human IgG4 detection
Description: as §2

[15] = target: T2, cynomolgous monkey NKG2D on NK, CD8+ T …; test: flow cytometry, cynomolgous gamma-delta T cells (Gd) in PBMC, anti-human IgG4 detection
Description: as §2

B1: MS, fully human anti-hNKG2D monoclonal antibody, recombinantly expressed as IgG4 isotype (antibody, V domains shown)
VH: QVHLQESGPGLVKPSETLSLTCTVSDDSISSYYWSWIRQPPGKGLEWIGHISYSGSANYNPSLKSRVTISVDTSKNQFSLKLSSVTAADTAVYYCANWDDAFNIWGQGTMVTVSS
VL: not shown
notes: also called MS IgG4; MS (IgG4)
IC50 (read off the curve) [1]: ~2 pM

B2: 21F2, fully human anti-hNKG2D monoclonal antibody, recombinantly expressed as IgG4 isotype (antibody, V domains shown)
VH: EVQLVQSGAEVKEPGESLKISCKNSGYSFTNYWVGWVRQMPGKGLEWMGIIYPGDSDTRYSPSFQGQVTISADKSINTAYLQWSSLKASDTAMYYCGRLTMFRGIIIGYFDYWGQGTLVTVSS
VL: EIVLTQSPATLSLSPGERATLSCRASQSVSSYLAWYQQKPGQAPRLLIYDASNRATGIPARFSGSGSGTDFTLTISSLEPEDFAVYYCQQRSNWPWTFGQGTKVEIKR
notes: also called 21F2 IgG4; 21F2 (IgG4)
IC50 [2]: 4.8 pM
EC50 [3]: 0.0605 µg/mL
EC50 [4]: 0.0435 µg/mL
EC50 [5]: 0.0475 µg/mL
IC50 (read off the curve) [1]: ~4 pM
EC50 [6]: 0.033 µg/mL and 0.023 nM
relative EC50, cynomolgous to human cells (%) [7]: 66.7%
Full blockade of 1 µg MICA-Fc (antibody concentration) [8]: 0.16 µg/mL
IC50 [8]: 6.3 ng/mL
Kd [9]: 0.0779 nM
koff [9]: 0.000144 s⁻¹
kon [9]: 1.85e+06 M⁻¹ s⁻¹
EC50 (µg/ml), inhibition of NK cell killing of ULPB3-expressing target cells (51Cr release) [10]: 0.021 µg/mL
relative EC50, cynomolgous to human cells (%) [11]: 71.9%
EC50 [12]: 0.0572 µg/mL
relative EC50, cynomolgous to human cells (%) [13]: 81.1%
EC50 [14]: 0.0712 µg/mL
EC50 [15]: 0.0464 µg/mL
